Source: patent publication US20210087294A1 (University of Pennsylvania, published 2021)

How the values were obtained:
[1] = molecular target: T1, murine fibroblast activation protein (FAP) (murine, UniProt P97321 1-761); test: flow cytometry on BALB/c 3T3 cells expressing a murine FAP transgene
T1 construct: whole, on cells; also called mouse FAP; murine FAP
T1 sequence (looked up): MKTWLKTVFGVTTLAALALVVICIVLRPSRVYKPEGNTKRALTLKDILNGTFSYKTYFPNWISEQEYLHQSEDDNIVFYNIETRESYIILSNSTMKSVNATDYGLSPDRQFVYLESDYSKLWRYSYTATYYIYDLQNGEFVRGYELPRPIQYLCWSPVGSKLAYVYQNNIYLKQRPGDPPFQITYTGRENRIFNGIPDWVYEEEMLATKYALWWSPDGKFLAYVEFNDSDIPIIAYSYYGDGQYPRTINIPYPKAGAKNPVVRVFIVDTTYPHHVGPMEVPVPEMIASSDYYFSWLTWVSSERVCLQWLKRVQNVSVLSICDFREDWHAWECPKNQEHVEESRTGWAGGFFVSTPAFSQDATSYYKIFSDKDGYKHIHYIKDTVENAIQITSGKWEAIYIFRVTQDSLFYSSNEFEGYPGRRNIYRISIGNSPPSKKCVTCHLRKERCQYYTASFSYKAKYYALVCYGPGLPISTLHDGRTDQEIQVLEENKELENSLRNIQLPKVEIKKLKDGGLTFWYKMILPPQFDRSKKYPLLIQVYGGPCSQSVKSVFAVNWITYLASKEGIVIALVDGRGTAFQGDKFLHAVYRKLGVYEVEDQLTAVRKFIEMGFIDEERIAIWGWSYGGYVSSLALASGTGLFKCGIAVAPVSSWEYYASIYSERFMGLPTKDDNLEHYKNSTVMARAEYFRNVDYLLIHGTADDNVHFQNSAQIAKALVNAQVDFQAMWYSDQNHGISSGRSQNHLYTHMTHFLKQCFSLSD
Excerpt: (§1) On day 241, 2017 spleens were harvested, a single cell suspension prepared, and splenocytes fused with sp2/0 cells by the UPENN Hybridoma Core Facility. Hyridomas supernatants were initially screened by FACS on MC KOSA parental (FAP null) vs. canine FAP-transgene expressing MC KOSA.K9FAP using hybridoma supernatants as the primary antibodies and AF488 goat anti-mouseIgG as a secondary. Clone 4G5 identified as reactive to transduced cells but not parental cells and screened on additional cells to confirm reactivity with FAP expressing but not FAP-negative cells: Human primary fibroblasts, BALB/c 3T3 expressing murine or human FAP transgenes, canine primary fibroblasts, SK KOSA (FAP expressing), and BALB/c 3T3 (FAP negative) cells. 4G5 was then determined to be an IgG1k isotype antibody using (Thermo Fisher Rapid ELISA Mouse mAb Isotyping Kit #37503)
(§2) BALB/c 3T3 fibroblast cells transduced to express full-length canine FAP were then used to immunize 14 week old BALB/c FAP^{-/-} mice. All injections were given intraperitoneally and consisted of 1×10⁷ cells in 0.5 ml sterile PBS. The initial immunization was followed by six booster immunizations at regular intervals over the next eight months. At the conclusion of the study, spleens were harvested, and the resulting single-cell suspensions were used to generate hybridomas via fusion with sp2/0 cells. […]

[2] = molecular target: T2, human fibroblast activation protein (FAP) (human, UniProt Q12884 1-760); test: flow cytometry on human primary fibroblasts and on BALB/c 3T3 cells expressing a human FAP transgene
T2 construct: whole, on cells; also called human FAP; huFAP
T2 sequence (looked up): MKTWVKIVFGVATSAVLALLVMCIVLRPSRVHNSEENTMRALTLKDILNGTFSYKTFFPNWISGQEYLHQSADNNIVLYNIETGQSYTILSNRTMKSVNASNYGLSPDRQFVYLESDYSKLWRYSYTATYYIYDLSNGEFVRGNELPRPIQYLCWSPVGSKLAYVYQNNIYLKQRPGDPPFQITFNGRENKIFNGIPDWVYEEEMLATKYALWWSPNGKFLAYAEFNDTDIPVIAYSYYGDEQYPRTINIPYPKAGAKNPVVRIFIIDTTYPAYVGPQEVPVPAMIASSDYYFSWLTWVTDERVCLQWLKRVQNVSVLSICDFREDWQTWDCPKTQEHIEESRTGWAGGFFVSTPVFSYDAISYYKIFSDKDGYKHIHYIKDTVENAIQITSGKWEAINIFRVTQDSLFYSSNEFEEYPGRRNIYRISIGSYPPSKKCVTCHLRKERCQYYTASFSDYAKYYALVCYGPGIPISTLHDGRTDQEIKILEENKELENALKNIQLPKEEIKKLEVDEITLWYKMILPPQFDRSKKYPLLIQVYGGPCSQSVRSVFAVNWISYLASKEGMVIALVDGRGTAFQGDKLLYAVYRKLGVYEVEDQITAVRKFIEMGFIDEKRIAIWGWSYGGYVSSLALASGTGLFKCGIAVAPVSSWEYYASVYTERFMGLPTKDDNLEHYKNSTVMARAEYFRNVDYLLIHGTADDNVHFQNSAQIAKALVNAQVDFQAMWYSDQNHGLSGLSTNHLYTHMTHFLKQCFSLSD
Excerpt: as §1, §2

- binding result [1]: binds
- binding result [2]: binds
B1: 4G5 anti-canine FAP antibody (antibody, V domains shown)
VH: QVQLQQPGAELVKPGASVKLSCKASGYTITSYSLHWVKQRPGQGLEWIGEINPANGDHNFSEKFEIKATLTVDSSSNTAFMQLSRLTSEDSAVYYCTRLDDSRFHWYFDVWGAGTTVTVSS
VL: QIVLTQSPALMSASPGEKVTMTCTASSSVSYMYWYQQKPRSSPKPWIFLTSNLASGVPARFSGRGSGTSFSLTISSMEAEDAATYYCQQWSGYPPITFGSGTKLEIK
notes: Mouse hybridoma monoclonal antibody, tested as hybridoma supernatant or immunoglobulin; also called clone 4G5; 4G5 immunoglobulin
